According to patent US20180224459A1:

Key:
[1] = molecular target: BC2T-mSA2-myc displayed on E. coli as a fusion to OmpX; assay: flow cytometry, induced E. coli displaying BC2T-mSA2-myc; co-treatment with Myc-ab-FITC; mean of triplicate
[2] = molecular target: HA-mSA2-BC2T-myc fusion displayed on yeast at the C-terminus of Aga2 (yeast) (UniProt P32781); assay: flow cytometry, induced yeast displaying HA-mSA2-BC2T-myc; co-treatment with HA-ab-FITC; mean of triplicate
[3] = molecular target: HA-mSA2-BC2T-myc fusion displayed on yeast at the C-terminus of Aga2 (yeast) (UniProt P32781); assay: flow cytometry, induced yeast displaying HA-mSA2-BC2T-myc; mean of triplicate
[4] = molecular target: HA-mSA2-BC2T-myc fusion displayed on yeast at the C-terminus of Aga2 (yeast) (UniProt P32781); assay: flow cytometry, induced yeast displaying HA-mSA2-BC2T-myc; co-treatment with Myc-ab-FITC; mean of triplicate
[5] = molecular target: BC2T-mSA2-myc displayed on E. coli as a fusion to OmpX; assay: flow cytometry, induced E. coli displaying BC2T-mSA2-myc; mean of triplicate
[6] = molecular target: Green Fluorescent Protein (GFP), biotinylated and immobilized on streptavidin coated plates [GFP: P42212]; assay: competition ELISA on immobilized GFP; 1:1 mixture with GFPnb-BC2T as competitor, against GFPnb-BC2T alone; BC2nb-nLuc read-out

BC2 nanobody-Cy5 conjugate (VHH)
Cy5 (+) [1]: 98.7% | Cy5 (+) [2]: 71.2% | Cy5 (+) [3]: 71.1% | Cy5 (+) [4]: 70.9% | Cy5 (+) [5]: 98.6%

BC2 nanobody-GFP fusion protein (from UniProt P42212 1-238) (VHH)
FITC or GFP (+) [3]: 59.6% | FITC or GFP (+) [5]: 98.1%

GFP-binding nanobody-His6 fusion protein (VHH)
decrease in luminescence [6]: 50%
